Experimental findings from PMC4255732, “Structural and functional consequences of removing the N-terminal domain from the magnesium chelatase ChlH subunit of Thermosynechococcus elongatus” (Biochemical Journal, 2014) are described below.

The target in one experiment is T1, ΔN159ChlH (Thermosynechococcus vestitus, UniProt Q8DM52).
T1 construct: gene chlH; N-terminal head domain and linker (159 residues) deleted, starts at Met160; His6-tagged (pET9aHis6); E. coli; about 130 kDa
In words: tryptophan fluorescence quenching. Format: binding.

The target of a further experiment is T2, MgCH (WT ChlH–I–D) (Thermosynechococcus vestitus, UniProt Q8DM52).
T2 construct: with Magnesium-chelatase subunit ChlI; Magnesium-chelatase subunit ChlD
The experiment is described as follows: continuous fluorescence assay of MgDIX formation at […] nm. The experiment is classed as biochemical. Conditions: 8 μM DIX, 5 mM ATP, 15 mM MgCl2, 50 mM Mops/KOH pH 7.7, 45 °C, without Gun4.

The target in experiment [1] is magnesium chelatase ChlH subunit of Thermosynechococcus elongatus, wild type (Thermosynechococcus elongatus). The experiment is described as follows: FRET or BRET; 0.1 μM ChlH (WT or ΔN159) labelled with Atto 488, titrated with Gun4 labelled with Alexa Fluor 532; quenching of emission at 524 nm; 50 mM Tricine/NaOH, 0.3 M glycerol, 200 mM NaCl, pH 7.7 (methods; the legend says 7.9), 45°C; apparent Kd from eqn (1).

Experiment [2] deals with ΔN159ChlH, N-terminally truncated ChlH subunit of Thermosynechococcus elongatus (Thermosynechococcus elongatus). Described as above.
Experiment [3] addresses magnesium chelatase ChlH subunit of Thermosynechococcus elongatus, wild type (Thermosynechococcus elongatus).
In experiment [4] the target is ΔN159ChlH, N-terminally truncated ChlH subunit of Thermosynechococcus elongatus (Thermosynechococcus elongatus).

T1 sequence (Q8DM52 entry or part of it, stated change not applied): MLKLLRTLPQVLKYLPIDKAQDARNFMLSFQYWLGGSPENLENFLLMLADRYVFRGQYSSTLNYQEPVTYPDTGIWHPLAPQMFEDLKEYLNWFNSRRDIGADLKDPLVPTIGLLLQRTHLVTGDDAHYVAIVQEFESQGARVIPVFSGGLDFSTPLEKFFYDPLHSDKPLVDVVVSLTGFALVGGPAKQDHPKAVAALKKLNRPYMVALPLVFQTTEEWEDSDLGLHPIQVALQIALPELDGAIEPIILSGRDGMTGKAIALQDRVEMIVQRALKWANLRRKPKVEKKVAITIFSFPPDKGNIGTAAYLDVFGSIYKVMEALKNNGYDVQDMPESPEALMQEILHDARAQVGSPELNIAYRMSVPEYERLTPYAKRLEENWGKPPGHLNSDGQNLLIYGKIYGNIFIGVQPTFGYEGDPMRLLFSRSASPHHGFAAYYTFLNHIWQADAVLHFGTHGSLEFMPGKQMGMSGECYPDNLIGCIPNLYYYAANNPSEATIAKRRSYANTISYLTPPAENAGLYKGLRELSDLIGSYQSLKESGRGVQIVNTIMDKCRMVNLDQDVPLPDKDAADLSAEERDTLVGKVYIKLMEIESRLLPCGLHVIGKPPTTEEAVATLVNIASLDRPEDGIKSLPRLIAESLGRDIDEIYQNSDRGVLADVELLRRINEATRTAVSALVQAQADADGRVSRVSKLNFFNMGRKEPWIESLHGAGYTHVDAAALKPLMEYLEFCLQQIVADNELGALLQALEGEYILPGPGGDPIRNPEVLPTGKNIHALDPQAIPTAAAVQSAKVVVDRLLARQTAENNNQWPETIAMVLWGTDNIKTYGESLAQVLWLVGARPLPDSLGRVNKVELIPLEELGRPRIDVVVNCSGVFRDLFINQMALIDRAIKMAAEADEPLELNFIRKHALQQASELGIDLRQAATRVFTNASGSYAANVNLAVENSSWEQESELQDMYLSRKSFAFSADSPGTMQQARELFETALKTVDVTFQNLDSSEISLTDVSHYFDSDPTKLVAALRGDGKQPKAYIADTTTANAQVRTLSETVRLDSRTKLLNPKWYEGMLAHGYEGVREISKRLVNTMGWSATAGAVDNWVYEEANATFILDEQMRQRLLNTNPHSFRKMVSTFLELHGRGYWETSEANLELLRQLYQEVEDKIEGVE
T2 sequence (Q8DM52 1-1326): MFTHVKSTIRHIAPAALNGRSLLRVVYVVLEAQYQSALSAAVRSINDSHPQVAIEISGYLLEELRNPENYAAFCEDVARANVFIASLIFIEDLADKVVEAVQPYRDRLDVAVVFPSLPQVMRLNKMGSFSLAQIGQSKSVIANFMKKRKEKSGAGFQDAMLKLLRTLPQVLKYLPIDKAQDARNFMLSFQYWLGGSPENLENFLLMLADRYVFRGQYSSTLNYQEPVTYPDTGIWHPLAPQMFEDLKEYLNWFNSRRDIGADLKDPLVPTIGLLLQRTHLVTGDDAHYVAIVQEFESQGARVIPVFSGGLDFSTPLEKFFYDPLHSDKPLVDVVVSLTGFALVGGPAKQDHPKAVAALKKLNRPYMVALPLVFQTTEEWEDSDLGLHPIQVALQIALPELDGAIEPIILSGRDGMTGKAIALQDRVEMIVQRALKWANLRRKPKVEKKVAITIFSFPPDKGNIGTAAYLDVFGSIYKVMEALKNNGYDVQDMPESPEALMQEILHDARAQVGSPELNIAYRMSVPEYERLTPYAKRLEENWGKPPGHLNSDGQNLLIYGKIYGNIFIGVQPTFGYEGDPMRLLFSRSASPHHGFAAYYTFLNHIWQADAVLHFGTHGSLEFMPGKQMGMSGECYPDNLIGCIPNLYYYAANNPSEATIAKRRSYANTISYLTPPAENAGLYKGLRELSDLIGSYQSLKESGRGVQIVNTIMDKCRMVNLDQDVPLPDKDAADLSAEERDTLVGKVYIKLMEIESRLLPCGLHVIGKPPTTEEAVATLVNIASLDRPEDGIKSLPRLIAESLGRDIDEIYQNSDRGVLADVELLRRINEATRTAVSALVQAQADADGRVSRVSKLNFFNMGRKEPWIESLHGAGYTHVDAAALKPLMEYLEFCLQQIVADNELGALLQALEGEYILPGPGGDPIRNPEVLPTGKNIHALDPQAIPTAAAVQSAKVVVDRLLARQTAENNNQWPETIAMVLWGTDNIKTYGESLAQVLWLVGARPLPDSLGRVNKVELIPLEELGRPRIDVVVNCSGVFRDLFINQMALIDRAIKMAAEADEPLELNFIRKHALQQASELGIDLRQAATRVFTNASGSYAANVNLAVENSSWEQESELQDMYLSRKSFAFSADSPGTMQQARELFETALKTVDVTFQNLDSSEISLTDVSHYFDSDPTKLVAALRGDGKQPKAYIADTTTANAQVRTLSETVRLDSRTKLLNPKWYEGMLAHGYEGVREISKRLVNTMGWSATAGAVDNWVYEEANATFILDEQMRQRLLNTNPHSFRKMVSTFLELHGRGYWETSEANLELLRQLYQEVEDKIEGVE
T2 sequence (Q8DIS0 13-367 partner): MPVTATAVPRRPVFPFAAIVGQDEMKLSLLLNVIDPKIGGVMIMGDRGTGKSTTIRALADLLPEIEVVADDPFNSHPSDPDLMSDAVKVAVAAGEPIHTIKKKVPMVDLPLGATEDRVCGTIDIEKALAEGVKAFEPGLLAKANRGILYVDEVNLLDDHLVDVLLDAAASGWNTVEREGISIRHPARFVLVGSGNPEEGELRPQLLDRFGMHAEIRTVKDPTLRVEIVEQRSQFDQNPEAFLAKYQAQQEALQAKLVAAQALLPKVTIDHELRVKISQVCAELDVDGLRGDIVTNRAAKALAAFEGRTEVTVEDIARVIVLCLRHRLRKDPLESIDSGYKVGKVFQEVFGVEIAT
T2 sequence (Q8DJ18 1-668 partner): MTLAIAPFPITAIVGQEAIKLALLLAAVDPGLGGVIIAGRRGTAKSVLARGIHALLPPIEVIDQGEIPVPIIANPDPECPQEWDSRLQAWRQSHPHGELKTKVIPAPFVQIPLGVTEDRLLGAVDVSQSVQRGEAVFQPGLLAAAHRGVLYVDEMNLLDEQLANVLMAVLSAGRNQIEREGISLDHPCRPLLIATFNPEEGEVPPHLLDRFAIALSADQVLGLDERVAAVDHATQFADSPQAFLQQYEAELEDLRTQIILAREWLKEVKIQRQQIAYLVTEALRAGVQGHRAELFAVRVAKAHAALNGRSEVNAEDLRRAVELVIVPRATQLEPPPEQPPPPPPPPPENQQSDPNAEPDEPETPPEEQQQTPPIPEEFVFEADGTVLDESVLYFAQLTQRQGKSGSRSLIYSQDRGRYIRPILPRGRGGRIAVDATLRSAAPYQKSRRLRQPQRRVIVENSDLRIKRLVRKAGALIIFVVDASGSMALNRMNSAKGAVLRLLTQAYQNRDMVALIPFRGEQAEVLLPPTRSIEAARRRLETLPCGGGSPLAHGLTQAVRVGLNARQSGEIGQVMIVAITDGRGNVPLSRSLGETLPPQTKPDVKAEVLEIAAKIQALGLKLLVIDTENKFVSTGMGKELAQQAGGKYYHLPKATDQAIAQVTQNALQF

As to `CC1=C(CCC(=O)O)c2cc3nc(cc4[nH]c(cc4C)cc4[nH]c(cc1n2)cc4C)C(C)=C3CCC(=O)O` [DIX], on ΔN159ChlH, the Kd was 1060 ± 90 nM. The “continuous fluorescence assay of MgDIX formation at 580 nm” value on MgCH (WT ChlH–I–D) was “assayed for in vitro MgCH activity by continuously monitoring fluorescence from the MgDIX product”.
As to “Gun4 protein of Thermosynechococcus elongatus (natural protein)”, the values for the Kd in experiment [1] and in experiment [2] were 9 nM and 16 nM, respectively. For the same compound, the Kapp from steady-state magnesium chelatase rates against [Gun4] (0.1 μM ChlD, 0.2 μM ChlI, 0.4 μM ChlH, 45°C, eqn (2), nd held at 0.4) in experiment [3] was 0.39 µM. In experiment [4], this compound returned a Kapp from steady-state magnesium chelatase rates against [Gun4] (0.1 μM ChlD, 0.2 μM ChlI, 0.4 μM ΔN159ChlH, 45°C, eqn (2), nd held at 0.4) of 0.05 µM.
